Measured values reported in patent US20170224771A1, “HISTATINS AS THERAPEUTIC AGENTS FOR OCULAR SURFACE DISEASE” (RAPID PATHOGEN SCREENING, INC., priority 2014, published 2017).

Tests used:
[1] = test system: cultured ocular epithelial cells; settings: cultured ocular epithelial cells in vitro; cited from earlier work
[2] = Stability of ocular histatin formulation, determined by mass spectroscopy; assay type: physicochemical; settings: 100 μg/mL in commercially-available gel tears lubricating eye drop with 0.25% PEG in aqueous buffered borate salt solution
Protocol: In some embodiments, the ocular histatin formulation is stable both at room temperature (25° C.) and at 45° C. for at least 90 days.

[3] = biological target: MMP-9 (Homo sapiens, UniProt P14780); settings: host protease; according to Gusman; cited from earlier work
[4] = biological target: T1, MMP-2 (Homo sapiens, UniProt P08253); settings: host protease; according to Gusman; cited from earlier work
T1 sequence (P08253 110-660): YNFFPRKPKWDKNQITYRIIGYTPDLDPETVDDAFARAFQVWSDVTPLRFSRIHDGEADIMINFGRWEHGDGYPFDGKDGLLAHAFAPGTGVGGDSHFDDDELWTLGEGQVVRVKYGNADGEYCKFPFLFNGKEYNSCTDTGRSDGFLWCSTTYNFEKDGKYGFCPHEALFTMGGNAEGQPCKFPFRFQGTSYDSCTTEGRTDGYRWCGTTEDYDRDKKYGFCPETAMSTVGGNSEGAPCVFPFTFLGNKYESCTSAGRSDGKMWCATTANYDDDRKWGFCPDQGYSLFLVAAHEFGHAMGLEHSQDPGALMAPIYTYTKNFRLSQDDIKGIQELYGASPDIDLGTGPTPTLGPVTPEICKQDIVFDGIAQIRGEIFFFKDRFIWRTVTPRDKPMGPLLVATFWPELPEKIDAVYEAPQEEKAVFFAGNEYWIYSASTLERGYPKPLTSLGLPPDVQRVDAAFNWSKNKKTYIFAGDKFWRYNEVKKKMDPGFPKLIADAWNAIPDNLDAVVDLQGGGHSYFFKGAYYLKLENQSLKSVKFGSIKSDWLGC

Chain of MMP-9 (P14780 94-707): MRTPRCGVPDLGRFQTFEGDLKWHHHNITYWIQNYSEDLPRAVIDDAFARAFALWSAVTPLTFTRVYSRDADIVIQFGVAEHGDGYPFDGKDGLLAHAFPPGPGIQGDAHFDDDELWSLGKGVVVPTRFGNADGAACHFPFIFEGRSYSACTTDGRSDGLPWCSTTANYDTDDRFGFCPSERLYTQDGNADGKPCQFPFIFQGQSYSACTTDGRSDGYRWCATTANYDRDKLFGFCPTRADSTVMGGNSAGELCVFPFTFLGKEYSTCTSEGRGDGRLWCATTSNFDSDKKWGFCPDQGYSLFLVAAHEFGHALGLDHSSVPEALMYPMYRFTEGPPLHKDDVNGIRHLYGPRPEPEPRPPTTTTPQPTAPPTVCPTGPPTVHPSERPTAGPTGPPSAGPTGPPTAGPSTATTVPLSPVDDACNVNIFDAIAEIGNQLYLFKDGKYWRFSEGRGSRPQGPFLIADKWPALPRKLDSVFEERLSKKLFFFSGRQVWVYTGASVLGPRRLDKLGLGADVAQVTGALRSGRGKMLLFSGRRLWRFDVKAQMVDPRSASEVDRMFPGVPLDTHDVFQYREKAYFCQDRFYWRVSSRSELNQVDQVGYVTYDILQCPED

Substance: Benzalkonium chloride
- cytotoxicity [1]: significant cytotoxicity

Substance: cyclized histatin 1: sortase cyclized histatin (including all of Histatin 1) (GGDSHEKRHHGYRRKFHEKHHSHREFPFYGDYGSNYLYDNLPET; sortase cyclization)
- time found to be stable ([2]; 25° C.): at least 505 days
- time found to be stable ([2]; 45° C.): at least 90 days

Substance: histatin 5: naturally occurring oral salivary peptide; SEQ ID NO: 30 peptide
- inhibition of MMP-9 activity [3]: greatly inhibited
- inhibition of MMP-2 activity [4]: greatly inhibited
